# Results reported in patent US20230110607A1 (IMMUNEONCO BIOPHARMACEUTICALS SHANGHAI, published 2023).
# T1: CD24 (human, UniProt P25063 27-59)
# T1 construct: whole, on cells; For MCF-7 and REH cells it says only CD24+; also called human CD24; hCD24
# T1 chain (looked up): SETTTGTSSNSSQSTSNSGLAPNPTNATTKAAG
# Target: T1, CD24
# Test: flow cytometry on CD24+ MCF-7 cells, FITC anti-human IgG-Fc secondary
# Description: CD24⁺ MCF-7 cells in 100 μl culture medium at a cell density of 1×10⁶/ml were incubated with 100 μl serially diluted IMM47H and hIgG-Fc (3-fold dilution, starting at 30 μg/ml), respectively, at 4° C. for 1 h. Cells were washed with cold PBS twice, and then incubated with 100 μl FITC-conjugated secondary antibody against human IgG-Fc (Cat #F9512, Sigma) for 45 min. Cells were washed twice and re-suspended in 200 μl PBS. Then, the cells were subject to FACS analysis using a flow cytometer (Merck Millipore, Guava® easyCyte 5HT).
binder,measurement,value
"IMM47H (antibody, human IgG1, kappa, V domains shown, also called humanized anti-CD24 antibody) VH: DVQLQESGPGLVKPSETLSLTCTVSGYSITSGYSWHWIRQPPGKGLEWIGYIHYSGSTKYNPSLKSRVTISVDTSKNQFSLKLSSVTAADTAVYYCARGADYALDYWGQRTSVTVSS VL: not shown",binding result,binds
